From the supplement of paper PMC9112550, “Optimization of the antimicrobial peptide Bac7 by deep mutational scanning” (BMC Biology, 2022)

system: Escherichia coli TOP10; assay: shrunken log2 fold change of peptide-encoding DNA abundance (4.5 h post-induction vs induction); higher = less antimicrobial activity (less host growth inhibition); conditions: time post-induction: 4.5 h; library: site-saturation at positions 5, 18, 19, 20
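Also: peptides expressed intracellularly from a pBAD plasmid library in pooled LB shake-flask culture, induced with 0.3% L-arabinose, DNA abundance read by NGS, three biological replicates, DESeq2 with apeglm shrinkage.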

Sequence | shrunken log2 fold change
RRIRMRPPRLPRPRPRPRAEPRP | 1.73
RRIRRRPPRLPRPRPRPWEIPRP | -0.0233
RRIRMRPPRLPRPRPRPADKPRP | 0.318
RRIRHRPPRLPRPRPRPFYTPRP | -1.02
RRIRVRPPRLPRPRPRPFICPRP | -0.331
RRIRERPPRLPRPRPRPWSKPRP | -0.466
RRIRYRPPRLPRPRPRPPCKPRP | 0.0994
RRIRQRPPRLPRPRPRPWFCPRP | -0.282
RRIRGRPPRLPRPRPRPKKWPRP | -0.00138
RRIRGRPPRLPRPRPRPIATPRP | 3
RRIRQRPPRLPRPRPRPRARPRP | 0.579
RRIRHRPPRLPRPRPRPDWGPRP | 0.0592
RRIRYRPPRLPRPRPRPNMIPRP | -1.34
RRIRKRPPRLPRPRPRPHMKPRP | -0.0471
RRIRGRPPRLPRPRPRPKHPPRP | 0.608
RRIRHRPPRLPRPRPRPYIQPRP | -0.73
RRIRQRPPRLPRPRPRPTQFPRP | 0.14
RRIRDRPPRLPRPRPRPKTIPRP | -0.00641
RRIRDRPPRLPRPRPRPFYLPRP | -0.085
RRIRLRPPRLPRPRPRPASDPRP | -0.19
RRIRTRPPRLPRPRPRPAATPRP | 0.247
RRIRNRPPRLPRPRPRPKCFPRP | -0.192
RRIRWRPPRLPRPRPRPVQIPRP | 0.278
RRIRPRPPRLPRPRPRPARTPRP | 0.396
RRIRQRPPRLPRPRPRPEYRPRP | 0.0706

Sequence | shrunken log2 fold change
RRIRERPPRLPRPRPRPFCKPRP | 0.0112
RRIRMRPPRLPRPRPRPTLSPRP | 0.377
RRIRIRPPRLPRPRPRPMKAPRP | -1.03
RRIRIRPPRLPRPRPRPNAFPRP | -0.0665
RRIRWRPPRLPRPRPRPGRPPRP | 0.42
RRIRQRPPRLPRPRPRPGVGPRP | 0.18
RRIRHRPPRLPRPRPRPYTEPRP | -0.204
RRIRERPPRLPRPRPRPGLLPRP | -0.0986
RRIRVRPPRLPRPRPRPDCTPRP | -0.068
RRIRERPPRLPRPRPRPGFKPRP | -0.324
RRIRFRPPRLPRPRPRPSVAPRP | 0.882
RRIRMRPPRLPRPRPRPPSQPRP | 1.18
RRIRLRPPRLPRPRPRPTHCPRP | -0.0342
RRIRHRPPRLPRPRPRPQAKPRP | -0.016
RRIRLRPPRLPRPRPRPPCEPRP | 0.123
RRIRSRPPRLPRPRPRPSNPPRP | -0.257
RRIRNRPPRLPRPRPRPKVEPRP | 0.039
RRIRNRPPRLPRPRPRPHHLPRP | -0.427
RRIRTRPPRLPRPRPRPCCMPRP | -0.197
RRIRYRPPRLPRPRPRPYVVPRP | -0.24
RRIRIRPPRLPRPRPRPPENPRP | 0.0392
RRIRWRPPRLPRPRPRPETNPRP | 0.187
RRIRIRPPRLPRPRPRPAWDPRP | -0.0871
RRIRERPPRLPRPRPRPLAAPRP | -0.0502
RRIRPRPPRLPRPRPRPANCPRP | 0.0263

Sequence | shrunken log2 fold change
RRIRPRPPRLPRPRPRPCITPRP | -0.373
RRIRNRPPRLPRPRPRPSVPPRP | -0.344
RRIRYRPPRLPRPRPRPSKMPRP | -0.365
RRIRNRPPRLPRPRPRPMKAPRP | -0.158
RRIRNRPPRLPRPRPRPNNVPRP | -0.943
RRIRARPPRLPRPRPRPHDTPRP | 0.111
RRIRERPPRLPRPRPRPLYPPRP | -0.458
RRIRWRPPRLPRPRPRPKLHPRP | 0.0953
RRIRERPPRLPRPRPRPQQSPRP | -0.05
RRIRVRPPRLPRPRPRPAEGPRP | -0.0119
RRIRHRPPRLPRPRPRPHEFPRP | 0.0248
RRIRARPPRLPRPRPRPSVIPRP | -0.0459
RRIRLRPPRLPRPRPRPDITPRP | -0.00678
RRIRKRPPRLPRPRPRPTDCPRP | -0.0167
RRIRYRPPRLPRPRPRPPAPPRP | 0.76
RRIRHRPPRLPRPRPRPSPSPRP | 0.00467
RRIRLRPPRLPRPRPRPNFAPRP | 0.0393
RRIRWRPPRLPRPRPRPKWYPRP | -0.235
RRIRDRPPRLPRPRPRPGTYPRP | -0.227
RRIRGRPPRLPRPRPRPEHQPRP | 0.529
RRIRWRPPRLPRPRPRPIDPPRP | -0.193
RRIRGRPPRLPRPRPRPWNLPRP | 0.000264
RRIRDRPPRLPRPRPRPEDSPRP | 0.882
RRIRFRPPRLPRPRPRPPWYPRP | -0.3
RRIRPRPPRLPRPRPRPSDHPRP | -0.605

Sequence | shrunken log2 fold change
RRIRQRPPRLPRPRPRPCFLPRP | 0.115
RRIRGRPPRLPRPRPRPDRCPRP | 0.286
RRIRCRPPRLPRPRPRPMIIPRP | -0.18
RRIRARPPRLPRPRPRPDHWPRP | 0.0446
RRIRDRPPRLPRPRPRPCAQPRP | 1.19
RRIRSRPPRLPRPRPRPATYPRP | -0.429
RRIRRRPPRLPRPRPRPDGWPRP | 1.45
RRIRRRPPRLPRPRPRPKFCPRP | 0.175
RRIRHRPPRLPRPRPRPKALPRP | 0.0359
RRIRLRPPRLPRPRPRPSEQPRP | -0.153
RRIRERPPRLPRPRPRPFWCPRP | -0.014
RRIRTRPPRLPRPRPRPSFRPRP | -1.02
RRIRFRPPRLPRPRPRPFARPRP | -0.115
RRIRTRPPRLPRPRPRPCDHPRP | -0.0753
RRIRLRPPRLPRPRPRPNPQPRP | -0.2
RRIRMRPPRLPRPRPRPCQFPRP | 0.0126
RRIRERPPRLPRPRPRPHAYPRP | -0.352
RRIRKRPPRLPRPRPRPHPSPRP | 0.163
RRIRLRPPRLPRPRPRPSQYPRP | -0.504
RRIRKRPPRLPRPRPRPTCYPRP | 0.0572
RRIRKRPPRLPRPRPRPVSTPRP | -0.102
RRIRMRPPRLPRPRPRPCLIPRP | -0.0342
RRIRQRPPRLPRPRPRPSARPRP | -0.00609
RRIRVRPPRLPRPRPRPVDQPRP | -0.0903
RRIRKRPPRLPRPRPRPIYSPRP | -0.41

Sequence | shrunken log2 fold change
RRIRFRPPRLPRPRPRPKCCPRP | -0.149
RRIRGRPPRLPRPRPRPQCYPRP | -0.0337
RRIRSRPPRLPRPRPRPADTPRP | -0.0432
RRIRHRPPRLPRPRPRPNSAPRP | -0.0296
RRIRTRPPRLPRPRPRPMYHPRP | -0.0615
RRIRLRPPRLPRPRPRPHWCPRP | -0.0751
RRIRHRPPRLPRPRPRPQANPRP | 0.0174
RRIRMRPPRLPRPRPRPNWQPRP | 0.00599
RRIRTRPPRLPRPRPRPPGEPRP | 0.318
RRIRHRPPRLPRPRPRPNTTPRP | -0.019
RRIRYRPPRLPRPRPRPPNTPRP | -0.686
RRIRSRPPRLPRPRPRPHMMPRP | -0.113
RRIRPRPPRLPRPRPRPIWEPRP | 0.0926
RRIRMRPPRLPRPRPRPMYIPRP | -0.0178
RRIRPRPPRLPRPRPRPMQSPRP | 0.524
RRIRSRPPRLPRPRPRPFYNPRP | -0.54
RRIRVRPPRLPRPRPRPGKTPRP | 0.0999
RRIRHRPPRLPRPRPRPHGWPRP | 0.0177
RRIRMRPPRLPRPRPRPNFGPRP | 0.0832
RRIRRRPPRLPRPRPRPGWYPRP | 0.205
RRIRKRPPRLPRPRPRPMLAPRP | 0.843
RRIRPRPPRLPRPRPRPFLMPRP | -0.349
RRIRSRPPRLPRPRPRPTEEPRP | 0.234
RRIRHRPPRLPRPRPRPHNWPRP | -0.214
RRIRCRPPRLPRPRPRPWSHPRP | -0.0223

Sequence | shrunken log2 fold change
RRIRGRPPRLPRPRPRPACLPRP | 0.792
RRIRLRPPRLPRPRPRPDREPRP | 0.0246
RRIRGRPPRLPRPRPRPVHAPRP | 0.743
RRIRWRPPRLPRPRPRPTGNPRP | 0.2
RRIRWRPPRLPRPRPRPDKMPRP | -0.0535
RRIRWRPPRLPRPRPRPCRVPRP | 0.103
RRIRPRPPRLPRPRPRPNAIPRP | -0.0755
RRIRERPPRLPRPRPRPYPYPRP | -0.372
RRIRNRPPRLPRPRPRPGDTPRP | -0.0217
RRIRLRPPRLPRPRPRPDAPPRP | 0.313
RRIRRRPPRLPRPRPRPPWLPRP | 0.634
RRIRIRPPRLPRPRPRPAHFPRP | 0.0262
RRIRFRPPRLPRPRPRPVVHPRP | -0.106
RRIRLRPPRLPRPRPRPVPFPRP | 0.123
RRIRHRPPRLPRPRPRPSLQPRP | -0.0974
RRIRFRPPRLPRPRPRPKNGPRP | -0.0366
RRIRYRPPRLPRPRPRPHWQPRP | -0.0696
RRIRMRPPRLPRPRPRPFTYPRP | -0.0802
RRIRTRPPRLPRPRPRPDHHPRP | -0.474
RRIRHRPPRLPRPRPRPYYHPRP | -0.339
RRIRPRPPRLPRPRPRPMYIPRP | -0.0479
RRIRLRPPRLPRPRPRPCFQPRP | -0.512
RRIRMRPPRLPRPRPRPIHYPRP | -0.689
RRIRPRPPRLPRPRPRPKLMPRP | 0.121
RRIRHRPPRLPRPRPRPREFPRP | 0.0275
